Test results taken from the supplement of paper PMC9170038.

System: K4 kissing-loop RNA reporter
Assay: apparent KD of K4 kissing-loop reporter; higher = weaker reporter binding
Settings: Eterna round: R107
Method: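 RNA-MaP round R107: designed RNA switches with theophylline, tryptophan, arginine or FMN aptamers are transcribed on-chip within common flanks. They are titrated with a labelled K4 kissing-loop RNA reporter in RNA-MaP buffer (100 mM Tris pH 7.5, 80 mM KCl, 4 mM MgCl2), without ligand or with the indicated ligand. Median apparent KD per design.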

[1] = input ligand: theophylline 20 uM
[2] = input ligand: tryptophan 2.4 mM
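Further: bound reporter read as fluorescence of individual clusters on recovered sequencing chips by microscopy, with normalized cluster intensities fitted with a binding model.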

Sequence | apparent KD of K4 kissing-loop reporter (input ligand: FMN 200 uM) [nM] | apparent KD of K4 kissing-loop reporter (input ligand: arginine 13.2 mM) [nM] | apparent KD of K4 kissing-loop reporter (input ligand: none) [nM] | apparent KD of K4 kissing-loop reporter [1] [nM] | apparent KD of K4 kissing-loop reporter [2] [nM]
CGAGUCCUGAGGAGUGAUGUUCCUCGGCCACGAGGACCGGUACGGCCGCCACUCGUUACUCGGGCUUAGUGGCUAGCACUAAGCU [Tirete] | 200 | 249 | 203 | 238 | 118
CGAUACGGAAAUACGUGUCUCUAUUCAGAAGGAGCGUGGUAGUACACAGGUAGGUCGCUGAAUUUUAAACUAGUGAUGUUAGUCU [JR_SSArginiA_Sub005] | 317 | 281 | 331 | 292 | 259
CGAUAGGGAAGUCGAUUGCUCACUGGUAAACGAGGACCGGUACGGCCGCCACUCGGGUCCAGUGAUGUUGGACUUUGUGGCGGGC [Edladian] | 117 | 99.5 | 104 | 99.5 | 109
CGCAAGCAGCCAGUGAUGUUGGCCGCCUUGCGAGGACCGGUACGGCCGCCACUCGAAGGCGGCUACUAGUAAACCGCCUAACGGA [KL-XTryp-A17] | 105 | 91.1 | 95.6 | 81.2 | 184
CGCAAUAUUACGGAGUGAUGUUUCGUAGUCCGAGGACCGGUACGGCCGCCACUCGCUGGCGUUGGCCCAUAGACCGACGGAAUCG [theeternabot_sameState_KL_Trp_A_39] | 246 | 252 | 257 | 236 | 238
CGCAGGAUGGAAGGAUAUGGGAGUUGACGUCGCCGAGCUAACCUUCUGCACGGAGUGAUGUUUAGACCAGAAGGUCCUCGGAGCA [theeternabot_exclusion_KL_FMN_B_17] | 1210 | 997 | 1610 | 1150 | 1180
CGCAGUGAUGUUGCGAGUAGCUACAGGGAAGGAGCGUGCUAGAGCACAGGUAGGUCGCCCACGCAGUGAUGUUGUGUUAAAGGGU [Exclusion Arginine A GF 12] | 141 | 116 | 123 | 149 | 117
CGCCAGUGAUGUUGGUGCAGCUACCGGGAAGGAGCGCCCAUAAGGGCAGGUAGGUCGCCCGGGCAGUGAUGUUGCCUCAUGCCGC [Exclusion Arginine A GF 22] | 243 | 236 | 273 | 234 | 238
CGCCGCAAGGCGAGCGCUCCCACUCCGGAAGGAGCGCCCGGAAGGGCAGGUAGGUCGCCGGAGUGAUGUUCCGGUGGAGGGCUCG [#2 Exclusion - Arginine A Attempt #13 (Inspired by Omei)] | 358 | 248 | 334 | 491 | 416
CGCCGCAAGGCGGGCCGGCCCACUCCGGAAGGAGCGCCCGCAAGGGCAGGUAGGUCGCCGGAGUGAUGUUCCGGUGGCCGGCCCG [#2 Exclusion - Arginine A Attempt #3 (Inspired by Omei)] | 433 | 244 | 376 | 592 | 354
CGCCGUAAGGCGGUCGCUCCCACUCCGGAAGGAGCGCCCGGAAGGGCAGGUAGGUCGCCGGAGUGAUGUUCCGGUGGAGGGACCG [#2 Exclusion - Arginine A Attempt #9 (Inspired by Omei)] | 587 | 295 | 365 | 270 | 367
CGCGCGCGCGCGCGCGCGCGCGCGCGAAGUGAGGAUAUUUAGGGAGAAAGAAGGCACUAUAAAAUAUAGUGAUGUUAUAUAAGGG [SSFMNA.B] | 920 | 499 | 720 | 203 | 496
CGCGCGCGCUGAGAGGCGCGCGCGAAUGAUACCAGUAUAUAAGAAUACCCUUGGCAGCAUAAGAAAGAUAUAGUGAUGUUGUAUA [SSTheophA.D] | 75.3 | 199 | 43.1 | 201 | 29
CGGAUCGCAUCAGGAUAUCUCUCAUCAGUGAUGUUGGUGAAGCGUACGCGAAAGCGUACGCAGAUGAGAGAAGGGAUGCGAUCCG | 467 | 763 | 1670 | 766 | 945
CGGCCGUUAUGAGAUACCAGAGUGGCGACCAGUGAUGUUGGUCGACGCUUGCGGUCGUCUCUCCCUUGGCAGCUUAGUACGAAAG [Inisar] | 97.4 | 88.2 | 91.8 | 73.8 | 91.3
CGGCGGAGUGAUGUUCCACCUACUGCGGAUACCAGCUUUGCCAGAGGCCCUUGGCAGCCGCACGGCUCAGUGAUGUUGGGUUGCG [Same State Theophylline A G12] | 237 | 162 | 227 | 219 | 195

Sequence | apparent KD of K4 kissing-loop reporter (input ligand: FMN 200 uM) [nM] | apparent KD of K4 kissing-loop reporter (input ligand: arginine 13.2 mM) [nM] | apparent KD of K4 kissing-loop reporter (input ligand: none) [nM] | apparent KD of K4 kissing-loop reporter [1] [nM] | apparent KD of K4 kissing-loop reporter [2] [nM]
CGGCUCUAUCCUAGUAUUAAGAGGGAGUUGCGAGGACCGGUACGGCCGCCACUCGAAGUAGUUUGGCCAGUGAUGUUGGUCUUAC [Qubeatonza] | 223 | 213 | 129 | 152 | 421
CGGGAUGUUAAAGGAUAUAGCAGGUGAUACAAGAAAGUGAGUGAUGUUUAUGUAGAUGAUGAUAUGUUAGAAGGUUAACAAAACG [abcdefghijkl] | 1040 | 726 | 908 | 686 | 581
CGUAGCAGACGAAGGAGCGGCUACCUGAUUCAAGGUGAUGCUUGAGUGAUGUUCAGGUGUAGCCAGGUAGGUCGCGUCUGCUACG [Arg B Ex t9] | 201 | 144 | 164 | 180 | 170
CGUUUAUAGCAGGAUACCAGUACCCAUUAUGUACGUUUAUAGUAGAGUGAUGUUCUAAAGUACCCUUGGCAGCUUCCUGUGUCCC [ExTheophylB.Ab] | 163 | 178 | 190 | 198 | 150
CUAUAAGUGCCGAGUGAUGUUCGGCCAAUACGAGGACCGGUACGGCCGCCACUCGGUCAGUGGGUGCCCACCGGGCAUGGCUGAC [Cecezaa] | 174 | 217 | 176 | 227 | 112
CUCGAGUGAUGUUCGAUUAUUUAUACAGAUACCAGUGAAUUUUAACACCCUUGGCAGCUGGUUGUAUCAUUUUUUUUUACUAAAG [JR_ExcTheophyA_Sub008] | 140 | 166 | 179 | 225 | 133
CUGACCAACAGCGAUACCAGCGUGGAGUGAUGUUCCGUGGAUCGGAGUGAUGUUCCGAAGCGCCCUUGGCAGCGCAGAAGCAGGA [Exclusion Theophylline B GF11] | 197 | 136 | 201 | 150 | 152
CUGCCUCACUCGGCCGCCACUGUAUAAAUGUGACAGUGAUGUUGUCGUCGGAAAGGGCACUUAGGCAGGACCGGGAGUUUCAGGC [theeternabot_exclusion_KL_Trp_B_20] | 837 | 409 | 801 | 870 | 686
CUUAAGAUAUGAGUGAUGUUCAUGUCCGAAGGAGCGUGCGAAAGCACAGGUAGGUCGCGGAUGUGAGUGAUGUUCAUGUAAGCGA [KL-XArg-A12 #analogue] | 172 | 105 | 119 | 135 | 153
CUUGAGACAUGAGUGAUGUUCAUGUCCGAAGGAGCGUGCGAAAGCACAGGUAGGUCGCGGACGUGAGUGAUGUUCAUGUGAGCGA [KL-XArg-A10 #analogue] | 236 | 163 | 202 | 223 | 201
CUUGGAAGGACGGCCGCCACUGGGCAGUGAUGUUGCCCGACCAGGUAACGCAGUGAUGUUGCGACCAGGACCGGGUCCUAGGAAU [Exclusion Tryptophan B GF 24] | 161 | 140 | 155 | 136 | 105
CUUGGCAUGCGCGAUACCAGCGAACAUAGCAAGCUACGGGUAGUGAUGUUAUCUGAAUAACGCCCUUGGCAGCGCACAUGCCGGC [clock] | 872 | 418 | 593 | 679 | 712
GAAAGAAAGAAUGAUACCAGACACCCGAGUGAUGUUCGGAGCAGAGUGAUGUUCUUUUAAGUCCCUUGGCAGCAUAAAAGAAAAG [whbob_SS_Theo_B_sa82] | 109 | 138 | 153 | 159 | 119
GACAACAGGGUGAGACUCACGGCGCCAGAAGGAGCGGUGAUUCCACCAGGUAGGUCGCUGGCCCAGUGAUGUUGGGCUUUGUGUC [Onoran] | 129 | 120 | 138 | 133 | 123
GACAAUUCCGCUUCCGAGCAUACUUGACUGAAGGAUAUCAUCGUGUUGAGAAGGUCAGUAACAGAGAGUGAUGUUCUUUGAGGUC [theeternabot_sameState_KL_FMN_A_19] | 242 | 168 | 234 | 207 | 151
GAGAACUCUUACGAUACCAGCCGGAGUGAUGUUCCGUGCUUGGACGUAGUAACCCGCACCGGCCCUUGGCAGCGUGGAUCCUAUG [Biorar] | 86.1 | 78.3 | 82.3 | 79.3 | 74.4
